The values that follow come from patent US20170283834A1, “Processes for Producing A Fermentation Product Using A Fermenting Organism” (Novozymes A/S, priority 2014, published 2017).

Where a chain is given by its changes, count along the chain named. Names may count otherwise.

This series deals with zein. Briefly: Relative activity assay of protease variants (zein micro titer plate). The series is classed as biochemical. As to the method:
Each well contains 200 microL of 0.05-0.1% of zein (Sigma), 0.25 mM ZnSO4 and 1% of agar in 20 mM sodium acetate buffer, pH 4.5.
Yeast clones on SC-glucose were inoculated to a well of a 96-well micro titre plate containing YPD+Zn medium and cultivated at 28° C. for 3 days. The culture supernatants were applied to a 96-well zein micro titer plate and incubated at at least 2 temperatures (ex. 60° C. and 65° C., 70° C. and 75° C., 70° C. and 80° C.) for more than 4 hours or overnight. The turbidity of zein in the plate was measured as A630 and the relative activity (higher/lower temperatures) was determined as an indicator of thermoactivity improvement. The clones with higher relative activity than the parental variant were selected and the sequence was determined.

B1: JTP052: protease variant of SEQ ID NO: 3: D79L/S87P/A112P/D142L/S157K (protein, listed as Thermoascus aurantiacus)
chain: MRLVASLTALVALSVPVFPAAVNVKRASSYLEITLSQVSNTLIKAVVQNTGSDELSFVHLNFFKDPAPVKKVSVYRDGSEVQFEGILSRYKSTGLSRDAFTYLAPGESVEDVFDIASTYDLTSGGPVTIRTEGVVPYATANSTDIAGYISYSSNVLTIDVDGAAAATVSKAITPLDRRTRISSCSGSRQSALTTALRNAASLANAAADAAQSGSASKFSEYFKTTSSSTRQTVAARLRAVAREASSSSSGATTYYCLDPYGYCSPNVLAYTLPSYNIIANCDIFYTYLPPLTSTCHAQDQATTALHEFTHAPGVYSPGTLDLAYGYQAAMGLSSKQAVMNADTYALYANAIYLGC
With B1, the “Relative activity 75° C./70° C.” value (Table 3) is given as 111%.

B2: JTP146: protease variant of SEQ ID NO: 3: S50P D79L S87P A112P D142L (protein, listed as Thermoascus aurantiacus)
chain: B1 chain with S228P, K335S
On to B2, for which, where the note is “Table 5, upper part”, the “Relative activity 75° C./70° C.” value came to 83% and the “Relative activity 80° C./70° C.” value came to 63%.

B3: JTP053: protease variant of SEQ ID NO: 3: S41R/D79L/S87P/A112P/D142L/S157K (protein, listed as Thermoascus aurantiacus)
chain: B1 chain with S219R
As to B3, the “Relative activity 75° C./70° C.” value (Table 3) is on record as 113%.

B4: JTP072: protease variant of SEQ ID NO: 3: N26R/D79L/S87P (protein, listed as Thermoascus aurantiacus)
chain: B1 chain with N204R, P290A, L320D, K335S
For B4, for the setting “Table 3”, the “Relative activity 75° C./65° C.” value is 92%.

B5: JTP071: protease variant of SEQ ID NO: 3: D79L/S87P/T116V (protein, listed as Thermoascus aurantiacus)
chain: B1 chain with P290A, T294V, L320D, K335S
Turning to B5, the “Relative activity 75° C./70° C.” value (Table 3) came out at 105%.

B6: JTP135: protease variant of SEQ ID NO: 3: S38T D79L S87P A112P A126V D142L (protein, listed as Thermoascus aurantiacus)
chain: B1 chain with S216T, A304V, K335S
On to B6, for which, under “Table 5, upper part”, the “Relative activity 80° C./70° C.” value is recorded as 62%.

B7: JTP088: protease variant of SEQ ID NO: 3: Y43F/D79L/S87P/A112P/D142L (protein, listed as Thermoascus aurantiacus)
chain: B1 chain with Y221F, K335S
Regarding B7, where the note is “Table 4”, the “Relative activity 75° C./65° C.” value stood at 119%.

B8: JTP079: protease variant of SEQ ID NO: 3: A27G/D79L/S87P/A112P/D142L (protein, listed as Thermoascus aurantiacus)
chain: B1 chain with A205G, K335S
Take B8: the “Relative activity 75° C./65° C.” value (Table 3) is 104%.

B9: JTP059: protease variant of SEQ ID NO: 3: C6R/D79L/S87P (protein, listed as Thermoascus aurantiacus)
chain: B1 chain with C184R, P290A, L320D, K335S
In the case of B9, the “Relative activity 75° C./70° C.” value (Table 3) turned out to be 92%.

B10: JTP078: protease variant of SEQ ID NO: 3: A27V/D79L/S87P/A112P/D142L (protein, listed as Thermoascus aurantiacus)
chain: B1 chain with A205V, K335S
With B10, the “Relative activity 75° C./65° C.” value (Table 3) worked out at 100%.

B11: JTP061: protease variant of SEQ ID NO: 3: T46R/D79L/S87P (protein, listed as Thermoascus aurantiacus)
chain: B1 chain with T224R, P290A, L320D, K335S
Take B11: the “Relative activity 75° C./70° C.” value (Table 3) is given as 111%.

B12: JTP064: protease variant of SEQ ID NO: 3: D79L/S87P/N88R (protein, listed as Thermoascus aurantiacus)
chain: B1 chain with N266R, P290A, L320D, K335S
For the molecule B12, the “Relative activity 75° C./70° C.” value (Table 3) is on record as 92%.

B13: JTP143: protease variant of SEQ ID NO: 3: S36P D79L S87P A112P D142L (protein, listed as Thermoascus aurantiacus)
chain: B1 chain with S214P, K335S
B13: for the setting “Table 5, upper part”, the “Relative activity 75° C./70° C.” value was 69%.

B14: JTP161: protease variant of SEQ ID NO: 3: D79L Y82F S87G A112P D142L (protein, listed as Thermoascus aurantiacus)
chain: B1 chain with Y260F, P265G, K335S
Turning to B14, under “Table 5, upper part”, the “Relative activity 80° C./70° C.” value was 30% and the “Relative activity 85° C./70° C.” value worked out at 12%.

B15: JTP148: protease variant of SEQ ID NO: 3: D79L S87P D104P A112P D142L (protein, listed as Thermoascus aurantiacus)
chain: B1 chain with D282P, K335S
In the case of B15, where the note is “Table 5, upper part”, the “Relative activity 75° C./70° C.” value amounted to 76% and the “Relative activity 80° C./70° C.” value is 64%.

B16: JTP141: protease variant of SEQ ID NO: 3: D79L S87P A112P D142L T141C M161C (protein, listed as Thermoascus aurantiacus)
chain: B1 chain with T319C, K335S, M339C
In the case of B16, the “Relative activity 75° C./70° C.” value (Table 5, upper part) worked out at 68%.

B17: JTP140: protease variant of SEQ ID NO: 3: D79L S87P N98C A112P G135C D142L (protein, listed as Thermoascus aurantiacus)
chain: B1 chain with N276C, G313C, K335S
Turning to B17, the “Relative activity 75° C./70° C.” value (Table 5, upper part) is 81%.

B18: JTP083: protease variant of SEQ ID NO: 3: T46R/D79L/S87P/A112P/D142L (protein, listed as Thermoascus aurantiacus)
chain: B1 chain with T224R, K335S
On to B18, for which the “Relative activity 75° C./65° C.” value (Table 4) was 126%.

B19: JTP144: protease variant of SEQ ID NO: 3: A37P D79L S87P A112P D142L (protein, listed as Thermoascus aurantiacus)
chain: B1 chain with A215P, K335S
Turning to B19, where the note is “Table 5, upper part”, the “Relative activity 75° C./70° C.” value worked out at 57%.

B20: JTP090: protease variant of SEQ ID NO: 3: D79L/S87P/A112P/T124L/D142L (protein, listed as Thermoascus aurantiacus)
chain: B1 chain with T302L, K335S
Regarding B20, the “Relative activity 75° C./65° C.” value (Table 4) came to 141%.

B21: JTP063: protease variant of SEQ ID NO: 3: S49R/D79L/S87P (protein, listed as Thermoascus aurantiacus)
chain: B1 chain with S227R, P290A, L320D, K335S
In the case of B21, where the note is “Table 3”, the “Relative activity 75° C./70° C.” value came out at 94%.

B22: JTP145: protease variant of SEQ ID NO: 3: S49P D79L S87P A112P D142L (protein, listed as Thermoascus aurantiacus)
chain: B1 chain with S227P, K335S
On to B22, for which, under “Table 5, upper part”, the “Relative activity 75° C./70° C.” value amounted to 82% and the “Relative activity 80° C./70° C.” value was 59%.

B23: JTP137: protease variant of SEQ ID NO: 3: A27K D79L S87P A112P A126V D142L (protein, listed as Thermoascus aurantiacus)
chain: B1 chain with A205K, A304V, K335S
Regarding B23, for the setting “Table 5, upper part”, the “Relative activity 80° C./70° C.” value stood at 54%.

B24: JTP068: protease variant of SEQ ID NO: 3: D79L/S87P/T114P (protein, listed as Thermoascus aurantiacus)
chain: B1 chain with P290A, T292P, L320D, K335S
For B24, for the setting “Table 3”, the “Relative activity 75° C./70° C.” value is given as 99%.

B25: JTP069: protease variant of SEQ ID NO: 3: D79L/S87P/S115R (protein, listed as Thermoascus aurantiacus)
chain: B1 chain with P290A, S293R, L320D, K335S
For the molecule B25, the “Relative activity 75° C./70° C.” value (Table 3) is listed as 103%.

B26: JTP136: protease variant of SEQ ID NO: 3: D79L Y82F S87P A112P A126V D142L (protein, listed as Thermoascus aurantiacus)
chain: B1 chain with Y260F, A304V, K335S
Regarding B26, the “Relative activity 80° C./70° C.” value (Table 5, upper part) was 59%.

B27: JTP054: protease variant of SEQ ID NO: 3: ΔS5/D79L/S87P (protein, listed as Thermoascus aurantiacus)
chain: MRLVASLTALVALSVPVFPAAVNVKRASSYLEITLSQVSNTLIKAVVQNTGSDELSFVHLNFFKDPAPVKKVSVYRDGSEVQFEGILSRYKSTGLSRDAFTYLAPGESVEDVFDIASTYDLTSGGPVTIRTEGVVPYATANSTDIAGYISYSSNVLTIDVDGAAAATVSKAITPLDRRTRISCSGSRQSALTTALRNAASLANAAADAAQSGSASKFSEYFKTTSSSTRQTVAARLRAVAREASSSSSGATTYYCLDPYGYCSPNVLAYTLPSYNIIANCDIFYTYLPALTSTCHAQDQATTALHEFTHAPGVYSPGTDDLAYGYQAAMGLSSSQAVMNADTYALYANAIYLGC
Take B27: the “Relative activity 75° C./70° C.” value (Table 3) is given as 92%.

B28: JTP055: protease variant of SEQ ID NO: 3: ΔG8/D79L/S87P (protein, listed as Thermoascus aurantiacus)
chain: B27 chain with C183S, S184C, G185S
Turning to B28, the “Relative activity 75° C./70° C.” value (Table 3) turned out to be 95%.
